One series deals with T1, LiLOX (Lobosphaera incisa, UniProt A0A3G6V563).
T1 construct: full length 994 aa; cloned without N-terminal putative plastid signal peptide of 62 residues (ChloroP); N-terminal His tag, pET28a; E. coli BL21 Star; IMAC and SEC
T1 sequence (A0A3G6V563 63-994): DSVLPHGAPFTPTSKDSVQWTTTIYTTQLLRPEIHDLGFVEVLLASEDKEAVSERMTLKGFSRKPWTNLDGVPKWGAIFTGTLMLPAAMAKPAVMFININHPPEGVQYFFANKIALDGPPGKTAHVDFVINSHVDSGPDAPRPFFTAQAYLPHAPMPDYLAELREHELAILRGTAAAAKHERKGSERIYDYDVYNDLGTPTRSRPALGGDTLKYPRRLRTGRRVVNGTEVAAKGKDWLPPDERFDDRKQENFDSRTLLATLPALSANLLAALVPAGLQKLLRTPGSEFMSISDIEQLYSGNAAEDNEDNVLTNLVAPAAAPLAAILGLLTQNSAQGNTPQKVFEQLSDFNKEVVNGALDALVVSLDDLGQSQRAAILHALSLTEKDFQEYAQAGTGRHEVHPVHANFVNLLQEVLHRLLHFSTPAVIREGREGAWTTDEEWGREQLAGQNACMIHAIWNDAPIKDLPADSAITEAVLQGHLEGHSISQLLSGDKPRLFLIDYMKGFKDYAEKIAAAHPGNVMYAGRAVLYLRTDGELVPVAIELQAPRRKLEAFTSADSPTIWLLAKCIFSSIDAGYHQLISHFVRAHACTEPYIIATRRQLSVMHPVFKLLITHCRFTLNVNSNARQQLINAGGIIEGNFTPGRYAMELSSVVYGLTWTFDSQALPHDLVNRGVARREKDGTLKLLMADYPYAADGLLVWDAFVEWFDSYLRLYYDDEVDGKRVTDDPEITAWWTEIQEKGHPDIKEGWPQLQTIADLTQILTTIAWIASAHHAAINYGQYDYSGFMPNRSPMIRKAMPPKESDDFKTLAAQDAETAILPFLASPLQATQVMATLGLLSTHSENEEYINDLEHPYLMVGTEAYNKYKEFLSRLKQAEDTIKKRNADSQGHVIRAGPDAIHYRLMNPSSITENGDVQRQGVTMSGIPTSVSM
As to the kind of experiment: absorbance at […] nm (conjugated diene). In kind it is biochemical. Particulars: Hill equation fit (not Michaelis-Menten), 20 mM Bis-TRIS propane pH 7.5, 30 °C, 1 μg enzyme, 10-100 μM substrate.

Substrate in the series “purified protein”: CCCCC/C=C\C/C=C\C/C=C\C/C=C\CCCC(=O)O
In words: purified protein. To be noted: Hill equation fit (not Michaelis-Menten), 20 mM Bis-TRIS propane pH 7.5, 30 °C, 1 μg enzyme, 10-100 μM substrate. Format: biochemical, Lobosphaera incisa.

In the case of `CC/C=C\C/C=C\C/C=C\CCCCCCCC(=O)O` [18:3(n‐3)], the Michaelis constant (Km) on LiLOX is 55.5 ± 4.1 µM.

`CCCCC/C=C\C/C=C\CCCCCCCC(=O)O` [18:2(n‐6)]: at LiLOX, the Michaelis constant (Km) is 31.2 ± 2.78 µM.

B1: LiLOX (Lobosphaera incisa) (protein)
chain: T1 sequence (A0A3G6V563 63-994)
notes: full length 994 aa; cloned without N-terminal putative plastid signal peptide of 62 residues (ChloroP); N-terminal His tag, pET28a; E. coli BL21 Star; IMAC and SEC
As for B1, in the series “purified protein”, the K0.5 was 12.64 ± 1.1 µM, the turnover number (kcat) worked out at 10.1 ± 0.454 s⁻¹ and the kcat/Km was determined as 799000 M⁻¹ s⁻¹.

What is called Km is the concentration of substrate that gives half-maximal velocity. As usually defined, the kcat is the number of substrate molecules converted per active site and unit of time at saturation. By kcat/Km is commonly meant the turnover number divided by the Michaelis constant.

Values taken from PMC6587457, “The green microalga Lobosphaera incisa harbours an arachidonate 15S‐lipoxygenase” (Plant Biology (Stuttgart, Germany), 2018).
